Changes are numbered by the printed parent chain. In names and notes the source's numbering stands.
Experiments:
[1] = molecular target: the molecule itself; experiment: native MS; GppNHp: pre-incubated with 500 µM, 100 µM in 150 mM ammonium acetate pH 7.5; protein 12.5-16 µM
[2] = molecular target: the molecule itself; experiment: AUC; sedimentation equilibrium, with GDP; dimer to monomers; 7.2, 4.5 and 2.7 µM protein; buffer as SV-AUC; SEDPHAT monomer-dimer model; approximate KD
[3] = molecular target: the molecule itself; experiment: AUC; sedimentation equilibrium, with GppNHp; dimer to monomers; 7.2, 4.5 and 2.7 µM protein; buffer as SV-AUC; SEDPHAT monomer-dimer model; approximate KD
[4] = molecular target: the molecule itself; experiment: SEC-SAXS; nucleotide-free protein; 50 µl of 8 mg ml^-1 injected on a Bio SEC-3 column; 20 mM Hepes pH 7.5, 150 mM NaCl, 5 mM MgCl2, 5% glycerol, 1 mM DTT; mass from Porod volume
[5] = molecular target: the molecule itself; experiment: SEC-MALS; nucleotide-free protein; 10 µl of 8 mg ml^-1 injected on a Bio SEC-3 column; buffer as for SEC-SAXS
[6] = molecular target: the molecule itself; experiment: cell-based or functional assay

B1: Roco protein from Chlorobium tepidum (CtRoco), full length (natural protein, UniProt Q8KC98 1-1102, looked up)
chain: MSDLDVIRQIEQELGMQLEPVDKLKWYSKGYKLDKDQRVTAIGLYDCGSDTLDRIIQPLESLKSLSELSLSSNQITDISPLASLNSLSMLWLDRNQITDIAPLASLNSLSMLWLFGNKISDIAPLESLKSLTELQLSSNQITDIAPLASLKSLTELSLSGNNISDIAPLESLKSLTELSLSSNQITDIAPLASLKSLTELSLSSNQISDIAPLESLKSLTELQLSRNQISDIAPLESLKSLTELQLSSNQITDIAPLASLKSLTELQLSRNQISDIAPLESLNSLSKLWLNGNQITDIAPLASLNSLTELELSSNQITDIAPLASLKSLSTLWLSSNQISDIAPLASLESLSELSLSSNQISDISPLASLNSLTGFDVRRNPIKRLPETITGFDMEILWNDFSSSGFITFFDNPLESPPPEIVKQGKEAVRQYFQSIEEARSKGEALVHLQEIKVHLIGDGMAGKTSLLKQLIGETFDPKESQTHGLNVVTKQAPNIKGLENDDELKECLFHFWDFGGQEIMHASHQFFMTRSSVYMLLLDSRTDSNKHYWLRHIEKYGGKSPVIVVMNKIDENPSYNIEQKKINERFPAIENRFHRISCKNGDGVESIAKSLKSAVLHPDSIYGTPLAPSWIKVKEKLVEATTAQRYLNRTEVEKICNDSGITDPGERKTLLGYLNNLGIVLYFEALDLSEIYVLDPHWVTIGVYRIINSSKTKNGHLNTSALGYILNEEQIRCDEYDPAKNNKFTYTLLEQRYLLDIMKQFELCYDEGKGLFIIPSNLPTQIDNEPEITEGEPLRFIMKYDYLPSTIIPRLMIAMQHQILDRMQWRYGMVLKSQDHEGALAKVVAETKDSTITIAIQGEPRCKREYLSIIWYEIKKINANFTNLDVKEFIPLPGHPDELVEYKELLGLEKMGRDEYVSGKLEKVFSVSKMLDSVISKEERNKERLMGDINIKLENIGNPTIPIHQQVEVNVSQETVQHVENLQGFFENLKADILREAELEIDDPKERKRLANELELAENAITKMDAAVKSGKNKLKPDVKDRLGEFIDNLANENSRLRKGIALVMNGAEKVQKLARYYNNVAPFFDLPSVPPVLLGKEKT
notes: Roco protein from Chlorobium tepidum (CtRoco), a.a; 1-1102: LRR domain (1-411), Roc-COR module (412-946), C-terminal region (947-1102); also called CtRoco wt; C. tepidum Roco protein; source: E. coli BL21 (DE3), purified (Ni-NTA IMAC, EDTA treatment, Superdex S200 SEC)
monomer-dimer ratio [1]: 1 monomer/dimer
Kd [2]: ~2 µM
Kd [3]: ~30 µM
stoichiometry N [4]: 2

B2: CtRoco L487A mutant, full length (natural protein, Chlorobium tepidum, UniProt Q8KC98 1-1102, looked up)
chain: B1 chain with L487A
notes: Roco protein from Chlorobium tepidum (CtRoco), a.a; 1-1102, with L487A (analogue of LRRK2 I1371V); also called L487A CtRoco
stoichiometry N [5]: 2

B3: CtRoc-COR L487A mutant (domain or fragment, Chlorobium tepidum, UniProt Q8KC98 412-946, looked up)
chain: DNPLESPPPEIVKQGKEAVRQYFQSIEEARSKGEALVHLQEIKVHLIGDGMAGKTSLLKQLIGETFDPKESQTHGANVVTKQAPNIKGLENDDELKECLFHFWDFGGQEIMHASHQFFMTRSSVYMLLLDSRTDSNKHYWLRHIEKYGGKSPVIVVMNKIDENPSYNIEQKKINERFPAIENRFHRISCKNGDGVESIAKSLKSAVLHPDSIYGTPLAPSWIKVKEKLVEATTAQRYLNRTEVEKICNDSGITDPGERKTLLGYLNNLGIVLYFEALDLSEIYVLDPHWVTIGVYRIINSSKTKNGHLNTSALGYILNEEQIRCDEYDPAKNNKFTYTLLEQRYLLDIMKQFELCYDEGKGLFIIPSNLPTQIDNEPEITEGEPLRFIMKYDYLPSTIIPRLMIAMQHQILDRMQWRYGMVLKSQDHEGALAKVVAETKDSTITIAIQGEPRCKREYLSIIWYEIKKINANFTNLDVKEFIPLPGHPDELVEYKELLGLEKMGRDEYVSGKLEKVFSVSKMLDSVISKEERNKER
notes: Roco protein from Chlorobium tepidum, Roc-COR module a.a; 412-946, with L487A (analogue of LRRK2 I1371V); also called L487A CtRoc-COR
single-turnover GTP hydrolysis rate constant (1 µM protein, 1 µM GTP, GDP formation by reversed-phase HPLC), L487A against wild-type CtRoc-COR [6]: 4 fold decrease
stoichiometry N [5]: 2

B4: Roc-COR domain construct of the Chlorobium tepidum Roco protein (CtRoc-COR) (domain or fragment, UniProt Q8KC98 412-946, looked up)
chain: B3 chain with A76L
notes: Roco protein from Chlorobium tepidum (CtRoco), central Roc-COR module, a.a; 412-946; The monomer chain is written; also called CtRoc-COR wt; Roc-COR module; source: E. coli BL21 (DE3), purified (Ni-NTA IMAC, EDTA treatment, Superdex S200 SEC)
monomer/dimer ratio [1]: ~1 monomer/dimer
stoichiometry N [4]: 2
